Laboratory results: article PMC8244255 (Current Research in Structural Biology, 2021)

How the values were obtained:
Full-length human CaM = Full-length human CaM (Homo sapiens, UniProt P0DP23); test: ITC of CK peptides with full-length CaM; assay type: binding
[1] = biological target: C-lobe fragment (CaM 76–146) (Homo sapiens, UniProt P0DP23); test: ITC of CK peptides with C-lobe fragment of CaM; assay type: binding; settings: C-lobe compared to N-lobe
[2] = biological target: Calmodulin N-terminal globular domain (N-lobe fragment, sequence 1-75) (human, UniProt P0DP23 1-75); test: ITC
[3] = biological target: Calmodulin C-terminal globular domain (C-lobe fragment, sequence 76-146) (human, UniProt P0DP23 76-146); test: ITC

Molecule | stoichiometry n (Full-length human CaM; presence of Ca2+) | affinity for C-lobe relative to N-lobe (times higher) [1] | binding to CaM (Full-length human CaM; at any solution conditions) | stoichiometry N [2] | stoichiometry N [3]
Ac-NLGKHEKFSEVLKRLRLQ-NH2 [CKB peptide] | 2 | ca. 10 times | – | – | –
AcNH-LKRLRLQKRGTGGVDTAA-CONH2 [peptide covering CKB residues 312–329] | – | – | No binding could be detected | – | –
Ac-NLGKHEKFSEVLKRLRLQ-NH2 [CKB peptide (human brain-type creatine kinase residues 301-318)] | – | – | – | 1 peptide per fragment | 1 peptide per fragment
Ac-HLSKHPKFEEILTRLRLQ-NH2 [CKM peptide (human muscle-type creatine kinase residues 301-318)] | – | – | – | 1 peptide per fragment | 1 peptide per fragment
